The target of assay [1] is T1, 人B7-H4 (细胞表面B7-H4) (human) (UniProt Q7Z7D3).
T1 sequence (looked up): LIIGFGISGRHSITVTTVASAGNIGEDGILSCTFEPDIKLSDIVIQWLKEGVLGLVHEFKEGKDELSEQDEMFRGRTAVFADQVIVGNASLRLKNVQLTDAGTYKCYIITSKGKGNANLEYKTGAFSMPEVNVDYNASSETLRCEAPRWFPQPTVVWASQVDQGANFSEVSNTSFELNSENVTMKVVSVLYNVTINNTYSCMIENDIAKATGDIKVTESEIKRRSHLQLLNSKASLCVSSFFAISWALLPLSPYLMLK
In words: flow cytometry on MX-1 cells. On the technique in general: A flow cytometer gives signals particle by particle.

Assay [2] deals with T1, 人B7-H4 (细胞表面B7-H4) (human). In words: flow cytometry on HCC1569 cells.
Assay [3] concerns the target T2, 重组人B7-H4蛋白(R&D Systems#6576-B7-050) (human) (UniProt Q7Z7D3).
T2 sequence (looked up): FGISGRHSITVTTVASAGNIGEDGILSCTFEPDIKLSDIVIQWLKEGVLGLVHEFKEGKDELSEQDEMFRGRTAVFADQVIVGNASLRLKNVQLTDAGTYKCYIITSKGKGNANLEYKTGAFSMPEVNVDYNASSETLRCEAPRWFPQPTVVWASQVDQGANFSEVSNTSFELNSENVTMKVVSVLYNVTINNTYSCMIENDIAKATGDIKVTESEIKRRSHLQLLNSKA
In words: BLI (Octet), antibody on anti-human Fc sensor, recombinant human B7-H4 as analyte, 25 °C. A general note: Biolayer interferometry detects binding as a change in optical thickness at a sensor tip.

Broadly, the EC50 is the concentration needed to bring the measured effect to its halfway point. Read a high EC50 as a need for much substance.

B1: 1D11抗体 (antibody, from another filing, V domains shown)
VH: QVQLQQSGAELVRPGTSVKMSCKASGYTFTSYWIGWAKQRPGHGFEWIGDIYPGGGYTNYNEKFKGKATLTADKSSSTAYMQFSSLTSEDSAIYYCARLDGSSYRGAMDSWGQGTSITVSS
VL: DIQMTQSPSSLSASLGGKVTITCKASQGFNKYVAWYQHKPGQCPRLLIHYTSTLQPGIPARFSGSGSGRDYSFSISNLEPEDSATYFCLQYGNLLYAFGGGTKLEIKR
B1: the results for the EC50 in assay [1] and in assay [2] were 4.9 nM and 3.44 nM, respectively. Further, in assay [3], the K d, fold lower than that of B4-H4 2F9 is over 100 fold.

These data come from patent CN116917323A.
